Laboratory results published in publication PMC2874613 (Traffic (Copenhagen, Denmark), 2010).

T1: GST-[1-313]GGA3 (UniProt Q9NZ52 1-313)
T1 sequence (looked up): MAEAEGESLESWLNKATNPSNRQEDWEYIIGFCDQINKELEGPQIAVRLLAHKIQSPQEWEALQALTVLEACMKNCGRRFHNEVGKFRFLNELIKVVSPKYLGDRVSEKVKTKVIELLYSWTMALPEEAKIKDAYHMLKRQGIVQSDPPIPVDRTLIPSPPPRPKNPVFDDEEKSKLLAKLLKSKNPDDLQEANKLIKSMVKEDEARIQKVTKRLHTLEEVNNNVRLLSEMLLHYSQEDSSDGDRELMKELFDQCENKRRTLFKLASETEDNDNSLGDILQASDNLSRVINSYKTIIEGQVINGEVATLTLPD


Biological target: T1, GST-[1-313]GGA3
Assay: pull-down

Row | percent of total Arf precipitated with GST-[1-313]GGA3 | Binder
1 | < 0.15 % of the total | Arf1 expressed in HEK293T cells (human Arf1/pcDNA3.1) (natural protein) not shown
2 | > 0.3 % of the total | Arf1-GFP expressed in HEK293T cells (human Arf1/pEGFPN1) (natural protein) not shown
3 | < 0.15 % of the total | Arf1-HA expressed in HEK293T cells (natural protein) not shown
